Assay results taken from PMC6300308, “Linear Eyring Plots Conceal a Change in the Rate-Limiting Step in an Enzyme Reaction” (Biochemistry, 2018).
Like-named read-outs stand apart in the source and are kept apart here.

T1: AbHBDH (Acinetobacter baumannii, UniProt A0A1E3M3N6)
T1 construct: gene AUO97_16470; recombinant purified enzyme; cloning details only in supplement
T1 sequence (A0A1E3M3N6 1-261): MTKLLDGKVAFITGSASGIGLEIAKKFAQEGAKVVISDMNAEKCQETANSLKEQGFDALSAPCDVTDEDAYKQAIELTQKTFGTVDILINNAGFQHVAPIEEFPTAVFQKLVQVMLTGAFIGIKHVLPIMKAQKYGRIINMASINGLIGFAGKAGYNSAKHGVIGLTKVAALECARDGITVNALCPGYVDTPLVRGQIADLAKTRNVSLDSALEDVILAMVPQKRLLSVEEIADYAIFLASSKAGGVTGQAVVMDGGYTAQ

T2: PaHBDH (Psychrobacter arcticus, UniProt Q4FRT2)
T2 construct: gene Psyc_1428; recombinant purified enzyme; cloning details only in supplement
T2 sequence (Q4FRT2 1-266): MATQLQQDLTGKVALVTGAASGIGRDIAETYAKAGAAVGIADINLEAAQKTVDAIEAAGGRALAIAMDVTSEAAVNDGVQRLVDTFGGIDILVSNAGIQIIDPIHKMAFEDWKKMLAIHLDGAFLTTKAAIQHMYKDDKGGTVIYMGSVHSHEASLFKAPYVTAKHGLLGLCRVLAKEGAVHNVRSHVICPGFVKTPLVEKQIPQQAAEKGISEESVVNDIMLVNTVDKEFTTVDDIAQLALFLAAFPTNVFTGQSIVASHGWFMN


Tests used:
AbHBDH = biological target: T1, AbHBDH; experiment: stopped-flow single-turnover kinetics, NADH limiting; assay type: biochemical; details: acetoacetate or 3-oxovalerate as co-substrate; 283 and 298 K
PaHBDH = biological target: T2, PaHBDH; experiment: as above; assay type: biochemical; details: acetoacetate or 3-oxovalerate as co-substrate; 283 and 298 K
[1] = substrate: CCC(=O)CC(=O)O; experiment: steady-state saturation curves; assay type: biochemical, Psychrobacter arcticus; details: co-substrate NADH; 283-318 K; 45.0 °C
Excerpt: (§1) steady-state saturation curves on PaHBDH | We measured saturation curves for AbHBDH and PaHBDH at various temperatures

[2] = substrate: CC(=O)CC(=O)O; experiment: steady-state saturation curves; assay type: biochemical, Psychrobacter arcticus; details: co-substrate NADH; 283-318 K; 45.0 °C
Excerpt: as §1

[3] = substrate: NC(=O)C1=CN([C@@H]2O[C@H](COP(=O)(O)OP(=O)(O)OC[C@H]3O[C@@H](n4cnc5c(N)ncnc54)[C@H](O)[C@@H]3O)[C@@H](O)[C@H]2O)C=CC1; experiment: purified protein, by the assay type; set-up: steady-state saturation kinetics of NADH-dependent reduction by purified recombinant HBDH, 298 K
Excerpt: (§2) We measured saturation curves for AbHBDH and PaHBDH at various temperatures (283–330 K for AbHBDH and 283–318 K for PaHBDH) (Figure S2 and Tables S1–S4). […] Apparent steady-state catalytic constants (kcat) were used to construct Eyring plots for each enzyme (Figure 1). […] Accordingly, a significant negative ΔCp^⧧ is predicted for the psychrophilic enzyme but not for the mesophilic one (Table S6).

[4] = substrate: NC(=O)C1=CN([C@@H]2O[C@H](COP(=O)(O)OP(=O)(O)OC[C@H]3O[C@@H](n4cnc5c(N)ncnc54)[C@H](O)[C@@H]3O)[C@@H](O)[C@H]2O)C=CC1; experiment: purified protein, by the assay type; set-up: steady-state saturation kinetics of NADH-dependent reduction by purified recombinant HBDH, 298 K; remark: listed apart in the source
Excerpt: as §2

Molecule | stopped-flow single-turnover kinetics, NADH limiting (AbHBDH) | stopped-flow single-turnover kinetics, NADH limiting (PaHBDH) | Km [1] [µM] | kcat [1] [s⁻¹] | Km [2] [µM] | kcat [2] [s⁻¹] | Km [3] [µM] | kcat [3] [s⁻¹] | kcat/Km [3] [M⁻¹ s⁻¹] | Km [4] [µM] | kcat [4] [s⁻¹] | kcat/Km [4] [M⁻¹ s⁻¹]
NC(=O)C1=CN([C@@H]2O[C@H](COP(=O)(O)OP(=O)(O)OC[C@H]3O[C@@H](n4cnc5c(N)ncnc54)[C@H](O)[C@@H]3O)[C@@H](O)[C@H]2O)C=CC1 [NADH] | demonstrating NADH is saturated with AbHBDH and kSTO is unimolecular | demonstrating NADH is saturated with PaHBDH and kSTO is unimolecular | – | – | – | – | – | – | – | – | – | –
PaHBDH (Psychrobacter arcticus 273-4) (protein, recombinant purified enzyme; cloning details only in supplement) MATQLQQDLTGKVALVTGAASGIGRDIAETYAKAGAAVGIADINLEAAQKTVDAIEAAGGRALAIAMDVTSEAAVNDGVQRLVDTFGGIDILVSNAGIQIIDPIHKMAFEDWKKMLAIHLDGAFLTTKAAIQHMYKDDKGGTVIYMGSVHSHEASLFKAPYVTAKHGLLGLCRVLAKEGAVHNVRSHVICPGFVKTPLVEKQIPQQAAEKGISEESVVNDIMLVNTVDKEFTTVDDIAQLALFLAAFPTNVFTGQSIVASHGWFMN | – | – | 36 ± 2 | 5.9 ± 0.1 | 110 ± 10 | 86 ± 4 | 30 ± 10 | 86 ± 4 | 2.7e+06 ± 700000 | 3.4 ± 0.4 | 5.9 ± 0.1 | 1.7e+06 ± 800000
